# According to FireProtDB (doi:10.1046/j.1432-1327.1999.00491.x):
# Several values for one entry are separate records, joined by “and”; a condition that tells them apart may be missing. Equal entries are not always repeated.
# B1: Regulatory protein cro wild type, P03036 (protein)
# chain: MQTLSERLKKRRIALKMTQTELATKAGVKQQSIQLIEAGVTKRPRFLFEIAMALNCDPVWLQYGTKRGKAA
# Settings: Enterobacteria phage 434, Thermal, DSC, reversible: yes, whole UniProt chain shown; for unfolding free energy: 25 °C
# [1] = pH 2, glycine 20 mM, NaCl 200 mM
# [2] = pH 3, glycine 20 mM, NaCl 200 mM
# [3] = pH 4, Sodium acetate 20 mM, NaCl 200 mM
# [4] = pH 4.5, Sodium acetate 20 mM, NaCl 200 mM
protein,measurement,setting,value
B1,unfolding free energy,[1],1.17 kcal/mol
same,unfolding free energy,"pH 2, glycine 20 mM",0.22 kcal/mol
same,Tm,[1],38.3 °C and 39.4 °C and 35.6 °C
same,unfolding enthalpy (calorimetric),[1],33.5 kcal/mol and 33.9 kcal/mol and 34.2 kcal/mol
same,unfolding enthalpy (calorimetric),"pH 2, glycine 20 mM",24.1 kcal/mol and 27.5 kcal/mol and 22.2 kcal/mol
same,unfolding free energy,[2],2.27 kcal/mol
same,unfolding free energy,"pH 3, glycine 20 mM",2.58 kcal/mol
same,unfolding enthalpy (calorimetric),[2],42.1 kcal/mol and 40.4 kcal/mol and 39 kcal/mol
same,unfolding enthalpy (calorimetric),"pH 3, glycine 20 mM",34.4 kcal/mol and 32 kcal/mol
same,unfolding free energy,[3],3.78 kcal/mol
same,unfolding free energy,"pH 4, Sodium acetate 20 mM",3.59 kcal/mol
same,Tm,[3],59.8 °C and 57.8 °C and 57.2 °C
same,unfolding enthalpy (calorimetric),[3],51.1 kcal/mol and 50 kcal/mol and 49.7 kcal/mol
same,Tm,"pH 4, Sodium acetate 20 mM",58.2 °C and 53.6 °C
same,unfolding enthalpy (calorimetric),"pH 4, Sodium acetate 20 mM",50 kcal/mol and 45.6 kcal/mol and 44.2 kcal/mol
same,unfolding free energy,[4],4.33 kcal/mol
same,unfolding free energy,"pH 4.5, Sodium acetate 20 mM",4.4 kcal/mol
same,Tm,[4],63.7 °C and 63.5 °C and 60.2 °C
same,unfolding enthalpy (calorimetric),[4],54 kcal/mol and 54.7 kcal/mol and 52.1 kcal/mol
same,unfolding enthalpy (calorimetric),"pH 4.5, Sodium acetate 20 mM",53.1 kcal/mol and 46.4 kcal/mol
same,unfolding free energy,"pH 7, PIPES 20 mM, NaCl 200 mM",5.33 kcal/mol
same,unfolding free energy,"pH 7, PIPES 20 mM",5.35 kcal/mol
same,Tm,"pH 7, PIPES 20 mM, NaCl 200 mM",70.7 °C and 66.6 °C and 67.6 °C
same,unfolding enthalpy (calorimetric),"pH 7, PIPES 20 mM, NaCl 200 mM",58.6 kcal/mol and 57.6 kcal/mol and 58.1 kcal/mol
same,Tm,"pH 7, PIPES 20 mM",70.7 °C and 67.2 °C
same,unfolding enthalpy (calorimetric),"pH 7, PIPES 20 mM",59 kcal/mol and 54 kcal/mol
